Test results reported in US20200399330A1, “ANTI-LEUKEMIC, ANTI-HIV, AND SIALIDASE ACTIVITIES OF ROYAL-JELLY PROTEINS” (priority 2018, published 2020).
Entries after “also recorded” stand apart in the source; their conditions may differ.

How the values were obtained:
NFS-60 cells [1] = experiment: Fluorescence microscope investigation of apoptotic cells (EB/AO double staining), NFS-60; type: cell-based, murine; settings: NFS-60, 72 h
Procedure: (§1) Then leukemia cell apoptosis was investigated by ethidium bromide (EB)/acridine orange (AO) double staining (100 μg/mL for each) and then visualized under the fluorescent phase contrast microscope (Olympus, Japan).

[2] = test system: human T lymphocyte (Jurkat) leukemia cells; experiment: Anti-leukemic activity, MTT assay and phase-contrast morphology, Jurkat; type: cell-based; settings: 72 h
Procedure: (§2) Anti-leukemic activity of RJ and its fractions, Both leukemia cells (NFS-60 and Jurkat) were seeded in RPMI containing 10% FBS as 3000 cells/well in 96 well cell culture plate. Then serial concentrations from the safe dose of each of the tested RJ and its fractions was added and incubated for 72 h in a 5% CO2 incubator at 37° C. The cytotoxic effect of RJ and its fractions in comparison with DOX against both leukemia cell lines were investigated using the MTT assay as described above. Then the concentration that inhibits leukemia cell growth by 50% (IG50 value) was determined for the RJ and each of its fractions and used to select the effective fraction (the lowest IG50 value). The morphological changes of untreated and treated leukemia cells were examined using the phase-contrast microscope.

Jurkat cells [3] = experiment: Fluorescence microscope investigation of apoptotic cells (EB/AO double staining), Jurkat; type: cell-based, human; settings: 72 h
Procedure: as §1

[4] = test system: murine myeloid (NFS-60) leukemia cells; experiment: Anti-leukemic activity, MTT assay and phase-contrast morphology, NFS-60; type: cell-based; settings: NFS-60, 72 h
Procedure: as §2

NFS-60 cells [5] = experiment: Cell cycle distribution by flow cytometry, NFS-60; type: cell-based, murine; settings: NFS-60, at IG50, 72 h
Procedure: (§3) Briefly, the untreated and treated leukemia cells were incubated with 5 μg/mL RNase A (Sigma, USA) then mixed with 10 μl of 1 mg/mL PI (Sigma, USA) for flow cytometry analysis at 488 nm using Cell Quist and Mod Fit softwares.

Jurkat cells [6] = experiment: Flow cytometric analysis of apoptosis (annexin V/PI), Jurkat; type: cell-based, human; settings: at IG50, 72 h
Procedure: (§4) Flow cytometric analysis of apoptosis, RJ, its effective fractions (CPF, PF50, MRJP2, and MRJP2 X1), and DOX at their IG50 was incubated for 72 h with each of the leukemia cell lines. After trypsinization, the untreated and treated cells were incubated with annexin V/propidium iodide (PI) for 15 min. Then cells were fixed and incubated with streptavidin-fluorescein (5 μg/mL) for 15 min. The apoptosis-dependent anti-leukemic effect was determined by quantification of annexin-stained apoptotic cells using the Fluorescein isothiocyanate (FITC) signal detector (FL1) in the flow cytometer (Partec, Germany).

HepG2 cells = experiment: Sialidase activity (release of cellular SA), HepG2; type: cell-based; settings: 2 h and 72 h incubation
Procedure: (§5) The sialidase catalytic activity of the RJ isolated PFs was evaluated by incubating different concentrations (500, 250, 125, 62.5, 31.25) of each of the RJ-PFs (CPF, PF25, PF30, PF40, PF50, PF60, MRJP2 and MRJP2 isoform X1) with PBMCs or HepG2 cells at 37° C. for 2 h and 72 h. Two controls were included, each PF alone without cells and each cell alone without PF. At the end of the incubation period, the released SA concentration was quantified followed the previously published method.
(§6) Preparation of SA-attached cells, PBMCs were obtained by Ficoll-Hypaque density gradient centrifugation method as described previously. […] Finally, the supernatant was removed and the cells were suspended in 5 ml of RPMI-1640 medium containing 10% FBS and counted using trypan blue stain. […]
(§7) The SA assay, SA concentration was measured by the alkali-Ehrlich method using 0.2 M borate buffer at pH 8.5. After the incubation period (2 h or 72 h), cell culture was centrifuged at 2000 rpm for 15 min and the SA content was quantified in the supernatant. […] The developed violet color was read at 560 nm. The SA concentration (nmol/mL) was calculated from the standard SA calibration curve and used to calculate the sialidase activity of the RJPF as nmol/ml/min (IU). The specific activity (IU/mg protein) was calculated after determination of the protein content (mg/mL) in the supernatant using the Bradford method.

Jurkat cells [7] = experiment: Cell cycle distribution by flow cytometry, Jurkat; type: cell-based, human; settings: at IG50, 72 h
Procedure: as §3

NFS-60 cells [8] = experiment: Flow cytometric analysis of apoptosis (annexin V/PI), NFS-60; type: cell-based, murine; settings: NFS-60, at IG50, 72 h
Procedure: as §4

PBMCs = experiment: Sialidase activity (release of cellular SA), PBMCs; type: cell-based, human; settings: 2 h and 72 h incubation
Procedure: as §5, §6, §7

Molecule: COc1cccc2c1C(=O)c1c(O)c3c(c(O)c1C2=O)C[C@@](O)(C(=O)CO)C[C@@H]3O[C@H]1C[C@H](N)[C@H](O)[C@H](C)O1 [DOX, Doxorubicin, reference compound]
- apoptotic cell populations by EB/AO double staining (NFS-60 cells [1]): increased the number of the late apoptotic cells
- IG50 (concentration that inhibits leukemia cell growth by 50%) ([2]; MTT): significantly more potent than the tested fractions
- apoptotic cell populations by EB/AO double staining (Jurkat cells [3]): increased the number of the late apoptotic cells
- IG50 (concentration that inhibits leukemia cell growth by 50%) ([4]; MTT): significantly more potent than the tested fractions

B1: MRJP2: bound protein purified from PF50 by CM-Sephadex ion-exchange chromatography (protein, UniProt O77061 18-452, looked up)
Major royal jelly protein 2: AIVRENSPRNLEKSLNVIHEWKYFDYDFGSEERRQAAIQSGEYDHTKNYPFDVDQWRDKTFVTILRYDGVPSTLNVISGKTGKGGRLLKPYPDWSFAEFKDCSKIVSAFKIAIDKFDRLWVLDSGLVNRTVPVCAPKLHVFDLKTSNHLKQIEIPHDIAVNATTGKGGLVSLAVQAIDLANTLVYMADHKGDALIVYQNADDSFHRLTSNTFDYDPRYAKMTIDGESFTLKNGICGMALSPVTNNLYYSPLASHGLYYVNTAPFMKSQFGENNVQYQGSEDILNTQSLAKAVSKNGVLFVGLVGNSAVGCWNEHQSLQRQNLEMVAQNDRTLQMIAGMKIKEELPHFVGSNKPVKDEYMLVLSNRMQKIVNDDFNFDDVNFRILGANVKELIRNTHCVNNNQNDNIQNTNNQNDNNQKNNKKNANNQKNNNQNDN
- apoptotic cell populations by EB/AO double staining (NFS-60 cells [1]): increased the number of the late apoptotic cells
- cell cycle distribution (G0, G1, S, G2/M) (NFS-60 cells [5]): almost completely blocking the cell cycle G0 phase; also recorded: the most effective fraction with the same or higher potency than DOX
- % apoptotic cells (annexin V/PI) (Jurkat cells [6]): inducing apoptosis; also recorded: highest percentage of the apoptotic cell populations
- morphological changes under the phase contrast microscope [2]: hallmarks of the apoptosis, which observed obviously
- sialidase activity (released SA) (HepG2 cells): proven their sialidase activity
- apoptotic cell populations by EB/AO double staining (Jurkat cells [3]): increased the number of the late apoptotic cells
- cell cycle distribution (G0, G1, S, G2/M) (Jurkat cells [7]): almost completely blocking the cell cycle G0 phase; also recorded: the most effective fraction with the same or higher potency than DOX
- % apoptotic cells (annexin V/PI) (NFS-60 cells [8]): inducing apoptosis; also recorded: highest percentage of the apoptotic cell populations
- morphological changes under the phase contrast microscope [4]: hallmarks of the apoptosis, which observed obviously
- sialidase activity (released SA) (PBMCs): proven their sialidase activity
